Results as given in patent US9057727B2, “Screening methods using G-protein coupled receptors and related compositions” (The General Hospital Corporation, priority 2007, dated 2015).
Ends that are not written are not given here.

Legend:
Settings in all cases: parent PTHrP(1-28)NH
[1] = target: T1, human PTHR, G protein-coupled conformation (RG) (Homo sapiens, UniProt Q03431); experiment: Competition binding to RG conformation of hPTHR (COS-7 membranes, GαsND, 125I-[Aib1,3,M]PTH(1-15) tracer)
T1 construct: expressed in transfected cells; host or cells: COS-7, transient (Fugene-6); membranes
T1 sequence (Q03431 27-593): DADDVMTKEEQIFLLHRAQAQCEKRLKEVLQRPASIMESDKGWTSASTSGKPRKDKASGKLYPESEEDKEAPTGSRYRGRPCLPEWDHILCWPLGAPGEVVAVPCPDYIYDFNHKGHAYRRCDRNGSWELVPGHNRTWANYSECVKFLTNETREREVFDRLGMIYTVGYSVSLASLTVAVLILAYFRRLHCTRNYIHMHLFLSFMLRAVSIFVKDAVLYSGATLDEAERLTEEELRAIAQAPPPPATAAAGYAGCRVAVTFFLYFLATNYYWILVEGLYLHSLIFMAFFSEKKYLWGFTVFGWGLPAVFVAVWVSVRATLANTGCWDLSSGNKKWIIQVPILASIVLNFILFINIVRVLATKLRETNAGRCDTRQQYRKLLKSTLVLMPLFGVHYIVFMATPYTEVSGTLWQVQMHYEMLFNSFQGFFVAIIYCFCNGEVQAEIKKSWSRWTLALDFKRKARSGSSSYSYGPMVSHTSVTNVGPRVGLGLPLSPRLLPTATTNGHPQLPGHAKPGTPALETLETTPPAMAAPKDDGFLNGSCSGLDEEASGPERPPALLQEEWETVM

[2] = system: LLCPK1-B64 cells or SaOS-2 cells; experiment: cAMP screen of substituted PTHrP(1-28) analogs (% parent); type: cell-based
Protocol: Alanine substitution at position 18, 22, 25 and 26 increased activity in at least one cell type. These positions were further substituted to various types of amino acids, and cAMP activity was analyzed in LLCPK1-B64 cells (FIG. 27C) or SaOS-2 cells (FIG. 27D). Cells were treated with analogs at 3×10^−9M in the presence of IBMX for 30 minutes at room temperature. Responses for each analog were normalized to the response for the parent (native) PTHrP(1-28) peptide. Alanine substitutions were A^15 to A^17 (SEQ ID NO:152-154), A^18 (SEQ ID NO:34), A^19 to A^21 (SEQ ID NO:155-157), A^22 (SEQ ID NO:39), A^23 to A^25 (SEQ ID NO:158-160), A^26 (SEQ ID NO:46), and A^27 to A^28 (SEQ ID NO:161-162). Substitutions at position 18 were A^18 (SEQ ID NO: 34), G^18 (SEQ ID NO:163), S^18 (SEQ ID NO:35), M^18 (SEQ ID NO:36), L^18 (SEQ ID NO:164), F^18 (SEQ ID NO:37), N^18 (SEQ ID NO:165), E^18 (SEQ ID NO:38), and K^18 (SEQ ID NO:166). Substitutions at position 22 were A^22 (SEQ ID NO:39), G^22 (SEQ ID NO:167), and S^22 to K^22 (SEQ ID NO:40-45). Substitutions at position 26 were A^26 (SEQ ID NO:46), G^26 (SEQ ID NO:168), S^26 (SEQ ID NO:47), L^26 (SEQ ID NO:169), N^26 (SEQ ID NO:48), W^26 to E^26 (SEQ ID NO:170-171), and K^26 to R^26 (SEQ ID NO:49-50). Substitutions at position 25 were G^25 to S^25 (SEQ ID NO:172-173), L^25 (SEQ ID NO:51), N^25 (SEQ ID NO:174), W^25 (SEQ ID NO:52), E^25 (SEQ ID NO:175), and K^25 to R^25 (SEQ ID NO:53-54). […]

[3] = target: T2, human PTHR, G protein-uncoupled conformation (R^0) (Homo sapiens, UniProt Q03431); experiment: Competition binding to R0 conformation of hPTHR (COS-7 membranes, GTPγS, 125I-PTH(1-34) tracer)
T2 construct: expressed in transfected cells; host or cells: COS-7, transient (Fugene-6)
T2 sequence (Q03431 27-593): T1 sequence (Q03431 27-593)
Protocol: Membranes were prepared from COS-7 cells transfected with the hPTHR alone. GTPγS ([…]) was added to the binding reactions so as to functionally uncouple receptor-heterotrimeric G protein complexes, thus enriching for the R^0 (and R) conformations, relative to RG.
Reactions contained a total membrane protein concentration of 20 to 100 μg/mL, and a total radioactivity concentration of approximately 150,000 cpm/ml. Unlabeled peptide ligands and/or GTPγS (Sigma-Aldrich Inc. St. Louis, Mo.) were added to the reactions as indicated.
Membranes, tracer radioligand, and various concentrations of unlabeled ligands and/or GTPγS were incubated in the wells for 90 minutes, following which, the reaction plates were processed by rapid vacuum filtration to separate bound from free radioligand, as described above. […] For both radioligands, the non-specific binding was determined in reactions containing a saturating concentration of the unlabeled analog of the radioligand. The specifically bound radioactivity was calculated as a percent of the radioactivity specifically bound in the absence of a competing ligand or GTPγS.
To assess the capacities of various unlabeled peptide ligands to bind to the G protein-uncoupled and G protein-coupled PTHR conformations (R^0 and RG, respectively), membranes were prepared from transiently transfected COS-7 cells and the following assay conditions.

Substance | screen human PIR RG (% parent) [1] | screen cAMP (% parent) [2] | screen human PIR R0 (% parent) [3]
A18,L22,K26-PTHrP(1-28) (AVSEHQLLHDKGKSIQDARRRLFLHKLI-NH2) [A18, L22, K26-PTHrP(1-28)NH] | 177 % parent | 350 % parent | 160 % parent
A18,N22,K26-PTHrP(1-28) (AVSEHQLLHDKGKSIQDARRRNFLHKLI-NH2) [A18, N22, K26-PTHrP(1-28)NH] | 172 % parent | 326 % parent | 139 % parent
A18,W22,K26-PTHrP(1-28) (AVSEHQLLHDKGKSIQDARRRWFLHKLI-NH2) [A18, W22, K26-PTHrP(1-28)NH] | 115 % parent | 267 % parent | 136 % parent
E18,K22,26-PTHrP(1-28) (AVSEHQLLHDKGKSIQDERRRKFLHKLI-NH2) [E18, K22, 26-PTHrP(1-28)NH] | 208 % parent | 374 % parent | 119.8 % parent
E18,K22,A26-PTHrP(1-28) (AVSEHQLLHDKGKSIQDERRRKFLHALI-NH2) [E18, K22, A26-PTHrP(1-28)NH] | 192 % parent | 315 % parent | 106.1 % parent
E18,L22,A26-PTHrP(1-28) (AVSEHQLLHDKGKSIQDERRRLFLHALI-NH2) [E18, L22, A26-PTHrP(1-28)NH] | 125 % parent | 139 % parent | 52.5 % parent
E18,L22,K26-PTHrP(1-28) (AVSEHQLLHDKGKSIQDERRRLFLHKLI-NH2) [E18, L22, K26-PTHrP(1-28)NH] | 152 % parent | 264 % parent | 64.4 % parent
E18,N22,A26-PTHrP(1-28) (AVSEHQLLHDKGKSIQDERRRNFLHALI-NH2) [E18, N22, A26-PTHrP(1-28)NH] | 140 % parent | 171 % parent | 53.7 % parent
E18,N22,K26-PTHrP(1-28) (AVSEHQLLHDKGKSIQDERRRNFLHKLI-NH2) [E18, N22, K26-PTHrP(1-28)NH] | 147 % parent | 236 % parent | 84.4 % parent
E18,S22,A26-PTHrP(1-28) (AVSEHQLLHDKGKSIQDERRRSFLHALI-NH2) [E18, S22, A26-PTHrP(1-28)NH] | 132 % parent | 119 % parent | 31.9 % parent
E18,W22,A26-PTHrP(1-28) (AVSEHQLLHDKGKSIQDERRRWFLHALI-NH2) [E18, W22, A26-PTHrP(1-28)NH] | 116 % parent | 75 % parent | 18.8 % parent
E18,W22,K26-PTHrP(1-28) (AVSEHQLLHDKGKSIQDERRRWFLHKLI-NH2) [E18, W22, K26-PTHrP(1-28)NH] | 149 % parent | 165 % parent | 46.6 % parent
